Data from the RNAGym collection of RNA variant scans (doi:10.1073/pnas.2313332121).
Fewer inactive variants are shown than the library holds.

B1: TPR 5TU (parent)
chain: GGAUCUUCUCGAUCUAACAAAAAAGACAAAUCUGCCACAAAGCUUGAGAGCAUCUUCGGAUGCAGAGGCGGCAGCCUUCGGUGGCGCGAUAGCGCCAACGUUCUCAACUAUGACACGCAAAACGCGUGCUCCGUUGAAUGGAGUUUAUCAUG

Variants of: B1
Experiment: polymerase ribozyme fitness, log enrichment relative to wild type (log ratio); higher = more active; in vitro selection for triplet polymerase activity
Procedure, shortened: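 Mutant libraries of both subunits of a heterodimeric triplet polymerase ribozyme were PCR-built, transcribed, and selected once in triplicate, with frozen incubation at −7 °C and capture of gel-excised extended constructs on streptavidin beads before RT-PCR. Illumina sequencing of input and output libraries was filtered to genotypes with ≥10 input reads and ≥1 read per output. Fitness is the logarithm of genotype enrichment over wild-type enrichment, using inverse-variance-weighted replicate averages. The logarithm is base 2.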

Row | Variant | polymerase ribozyme fitness (log ratio)
1 | G50U A52C A107G | ≤ -4.2
2 | A52C G84U U144G | -2.05
3 | G50C U109G A113G A120C U130G | ≤ -4.2
4 | C51A A52C C116U C118A A142U | ≤ -4.2
5 | A52G G141U U145C G152A | -2.27
6 | A52G U148G | -4.18
7 | A52C C57G G94A G100U U148A | ≤ -4.2
8 | U53A G62C G84A G136A | -3.58
9 | A52G C57A A66G G68C C93U U101G G112U G140C U145A | ≤ -4.2
10 | A52C C85U | -1.81
11 | A52G G94C U102C C131U | -1.64
12 | U53A A107U U144G | -2.6
13 | U53A C149U | -1.57
14 | A52G G152C | -3.59
15 | A52G C69G C85G A97U G126A G141U | ≤ -4.2
16 | A52U U53G G88C A91C | ≤ -4.2
17 | U53A A91G G126U G140U | ≤ -4.2
18 | U53A C75U G84C | -2.82
19 | G50U U56A A91G C116U | -2.81
20 | G50U C95A C125G | -0.894
21 | G50C U90A | ≤ -4.2
22 | U53A C57A U102G C125A U134A | ≤ -4.2
23 | G50U C87U C114A | -3.78
24 | C51A C85U C103G G124A U145G A150G | ≤ -4.2

Row | Variant | polymerase ribozyme fitness (log ratio)
25 | A52C A73G A138G | ≤ -4.2
26 | A52G U55G G58A C95G U134A U139A | ≤ -4.2
27 | C51A C72A G80U U146C | ≤ -4.2
28 | C51U G92A | -3.5
29 | C51U G124A G133C G140A A150G | ≤ -4.2
30 | A52C G70A | -3.92
31 | A52U G84A | -2.18
32 | C51A C85A | -2.75
33 | A52G U53G A106C A119U G136U | ≤ -4.2
34 | A52U G74A G80C C95U A147C | ≤ -4.2
35 | U53A C54U C85U G141U | -1.21
36 | C51G G94C C149U | -3.9
37 | G50U G83A C95G A107G | ≤ -4.2
38 | U53A C131A | -3.17
39 | C51U U53A A110C C116A | ≤ -4.2
40 | A52G A60U G71A A121U U135G U148A | -4.18
41 | U53A G67C C76G G84A C114U | -4.1
42 | A52G G83C C93U | -3.66
43 | G50U A113C U139G | -3.93
44 | G50U C57A C76A A122U C131G | ≤ -4.2
45 | G50U G84U | -1.81
46 | C51U C116G G140C | -4.07
47 | C51A C118U G152A | -3.06
48 | A52C A106G U139C | ≤ -4.2

Row | Variant | polymerase ribozyme fitness (log ratio)
49 | C51U U53G C93G U127C | ≤ -4.2
50 | A52G C76A | -0.0301
51 | A52C C54U U55G G67C G71U C85U G143C | ≤ -4.2
52 | C51A A52C A64C C95U U101C A121C G133C U135G | ≤ -4.2
53 | A52U U55A A115U C118A G126U A150U | ≤ -4.2
54 | G50U A60U C87U G94A U146A | ≤ -4.2
55 | A52G U53A G84A | -0.8
56 | A52G A60G C85A C95G A97G U102A C125A | ≤ -4.2
57 | A52G G83A | -0.0714
58 | G50U C57A C72U G84A | -0.724
59 | C51G C85G C125U A137C | ≤ -4.2
60 | C51G C95U | -2.73
61 | U53A A73G G86A G92U C95U G143U | ≤ -4.2
62 | C51U G58U U82G C96U | -0.59
63 | C51U A115U | -2.12
64 | C51U G83U G86U G94A U135G U144G G152C | ≤ -4.2
65 | A52C G59A | -1.18
66 | G50U A60U C76A G80U U101G A107U | ≤ -4.2
67 | A52C G80C G84U C93U | ≤ -4.2
68 | A52G C57A G58A G83U C95U | -0.758
69 | U53A | -0.874
70 | C51G U55A | -2.88
71 | C51U G58A G124C | -1.29
72 | A52C G84A U130C | -0.715

Row | Variant | polymerase ribozyme fitness (log ratio)
73 | C51U C72U G80A C85A U109G | ≤ -4.2
74 | A52C G83C | -2.29
75 | G50U C87U | -1.51
76 | A52U A89U C96A | -2.98
77 | C51A C99G G141C | ≤ -4.2
78 | A52G C95G A107G A120G U139C | -4.13
79 | A52C C93U G94C | -3.36
80 | A52G U55A G59C G86U A142C G143C | ≤ -4.2
81 | A52C G58C G88U | ≤ -4.2
82 | A52U C76U G86C G126C G152U | ≤ -4.2
83 | C51A A52G U56G C79A | ≤ -4.2
84 | A52G A64U U101G A107C C125G | ≤ -4.2
85 | C51A C93U | -2.22
86 | A52U G92C | -2.01
87 | U53A G70A G88A C96U C123U | ≤ -4.2
88 | C51G C87U C114G | ≤ -4.2
89 | A52G U56A C87A C93A A113G U135A | ≤ -4.2
90 | C51G C85A G92U C95A | ≤ -4.2
91 | G50U A89U C93U C99U U145A | -3.4
92 | C51U U61A G84U | -2.8
93 | A52G C108G | ≤ -4.2
94 | A52G G84A G94U G143A | ≤ -4.2
95 | A52C C118U G143A U144C | -3.94
96 | A52G G86A C93A G143A | ≤ -4.2

Row | Variant | polymerase ribozyme fitness (log ratio)
97 | C51U G141A | 0.523
98 | A52C C95U C99U | -3.18
99 | A52C U61A G65A C95A G141U | -2.36
100 | A52C C54U | -1.87
101 | C51A A52G G68A A142C U144A | ≤ -4.2
102 | C51U U139G U144A | 0.259
103 | U53A C132U | -1.73
104 | C51U G84C C87A C95A A122C A137U G141C | ≤ -4.2
105 | G50U U61A C93G C105U A107G | ≤ -4.2
106 | C51U G140U | -2.55
107 | A52C A66C A91C A115G | ≤ -4.2
108 | C51G A115C A122U | -3.82
109 | C51U G86C A113G C114U A121G U151G | ≤ -4.2
110 | U53A C57G G74C C87A C93A C149A | ≤ -4.2
111 | C51U C103A A121C | -1
112 | U53A C95A A120G | -1.57
113 | C51U U55A C75A C85U U101A C114U A115G G124A | ≤ -4.2
114 | G50U A73U G84A U109G | ≤ -4.2
115 | A52G U53G | -3.21
116 | A52G C87U C116G A122C G136U | -2.85
117 | A52G G71C C95A C131A U139A | ≤ -4.2
118 | U53A C95U A138C | ≤ -4.2
119 | A52C C57U U102G U146G | ≤ -4.2
120 | G50U U77A C87A | ≤ -4.2

Row | Variant | polymerase ribozyme fitness (log ratio)
121 | U53A C99U | -2.58
122 | C51U U53C C63U G74C G86C A89U A113U | ≤ -4.2
123 | U53A G59A C85A G88A U151A | ≤ -4.2
124 | C51U C93U U109G C116U | -3.68
125 | C51G G136U U144G | -2.56
126 | A52G G83U C96A U101C G124A U145A C149U | -2.95
127 | A52G G58C G59C C96G A150U | -3.59
128 | G50U U61G C108U U135A | ≤ -4.2
129 | C51U C79U | -3.01
130 | A52C G88A C95U C99U A110U | -4.07
131 | A52G A106C | -0.69
132 | A52G C87U | -1.3
133 | C51U G94U | -1.45
134 | U53A A73C | -3.99
135 | A52C U55A A91G U111A U139G | ≤ -4.2
136 | C51A A91G | -3.53
137 | A52C G71A C85A G94C G141U | ≤ -4.2
138 | A52G A97U | -0.8
139 | A52C C57A C69U C85U | -3.07
140 | A52G C57U C75G A91U C95G C123A | -4.05
141 | C51A A89C C93U G117U A137U A150C | ≤ -4.2
142 | A52G G92C G117U A137G U144A | ≤ -4.2
143 | A52U G143U U148A | -4.01
144 | U53A G58A C93U C116U | -0.438

Row | Variant | polymerase ribozyme fitness (log ratio)
145 | C51A C95U A97U | -2.64
146 | G50U A107C C132A | ≤ -4.2
147 | A52U C95U | -1.52
148 | A52U G84C C116U U146G | -4.11
149 | U53A G59A C85G C149U | -3.31
150 | U53A C103U | -0.534
151 | A52G C57A G84A | -0.599
152 | U53A A64G | -3.41
153 | A52C C96A C118G C125A | -2.23
154 | A52G U53A A119U G126C | 0.147
155 | C51G G80A G84U G140C | ≤ -4.2
156 | C51U G143U | -2.3
157 | G50U C72U A97C | -0.611
158 | C51A C54G G59C G84A C116G | -3.63
159 | A52U C87A A97U U127C A142C | ≤ -4.2
160 | C51U C63U G83C U151C | ≤ -4.2
161 | A52C G58C C85A | -3.96
162 | A52G C57A A73U | -0.666
163 | U53A C85U G133C | -2.22
164 | A52U A60G C76U A89U C96U | -3.8
165 | A52C A73G G84U A115G C123G G124C C129A | ≤ -4.2
166 | A52U U56A G83C G84A C99G A106U U144A | ≤ -4.2
167 | A52G G83A A121G | -0.142
